B1: CLDN2, P57739 (peptide)
chain: FNSYSLTGYV
B2: SAPCD1, Q5SSQ6 (peptide)
chain: TKGPRGPTRV

These binders were tested against T1, DVL3, Q92997 (assay: holdup assay). Conditions: plain residues with an end cap or a label only (N-terminal biotin on a linker: ado-ado).
T1 sequence (Q92997 244-331, limits assumed, looked up): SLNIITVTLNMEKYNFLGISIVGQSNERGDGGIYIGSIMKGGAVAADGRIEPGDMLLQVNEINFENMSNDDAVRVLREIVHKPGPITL
Parameters: key: below the threshold = too weak to quantify, mostly under pKd 3.1 to 4
B1 gave a pKd of 3.81.
B2 was tested, and the pKd was “below the threshold”.

Each binder was assayed against T2, SIPA1L2, Q9P2F8 (assay: holdup assay). Conditions: plain residues with an end cap or a label only (N-terminal biotin on a linker: ado-ado).
T2 sequence (Q9P2F8 945-1036, limits assumed, looked up): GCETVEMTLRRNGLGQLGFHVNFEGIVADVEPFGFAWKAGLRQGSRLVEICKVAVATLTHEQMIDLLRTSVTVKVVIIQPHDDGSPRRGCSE
Parameters: key: below the threshold = too weak to quantify, mostly under pKd 3.1 to 4
B1 gave a pKd of 3.5.
In the case of B2, the pKd is reported as “below the threshold”.

What follows are binders tested against GRIP2_3, Q9C0E4 (assay: holdup assay). Conditions: plain residues with an end cap or a label only (N-terminal biotin on a linker: ado-ado).
Sequence of GRIP2_3, Q9C0E4 (Q9C0E4 238-339): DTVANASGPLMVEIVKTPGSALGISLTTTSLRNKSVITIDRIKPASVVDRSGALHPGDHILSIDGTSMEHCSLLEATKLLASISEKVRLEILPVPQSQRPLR
Parameters: key: below the threshold = too weak to quantify, mostly under pKd 3.1 to 4
For B1, the pKd was “below the threshold”.
In the case of B2, the pKd is reported as “below the threshold”.

These binders were tested against T3, APBA3_1, O96018 (assay: holdup assay). Conditions: plain residues with an end cap or a label only (N-terminal biotin on a linker: ado-ado).
T3 sequence (O96018 389-490, limits assumed, looked up): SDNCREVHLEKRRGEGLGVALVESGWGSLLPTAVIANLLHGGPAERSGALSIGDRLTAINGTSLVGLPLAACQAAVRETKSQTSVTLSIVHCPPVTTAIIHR
Parameters: key: below the threshold = too weak to quantify, mostly under pKd 3.1 to 4
For B1, the pKd was “below the threshold”.
For B2, the pKd was “below the threshold”.

The binders below were run against SCRIB_3, Q14160 (assay: holdup assay). Conditions: plain residues with an end cap or a label only (N-terminal biotin on a linker: ado-ado).
Sequence of SCRIB_3, Q14160 (Q14160 999-1103): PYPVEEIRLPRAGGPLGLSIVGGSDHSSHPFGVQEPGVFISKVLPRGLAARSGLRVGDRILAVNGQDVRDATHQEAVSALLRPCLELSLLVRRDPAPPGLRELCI
Parameters: key: below the threshold = too weak to quantify, mostly under pKd 3.1 to 4
With B1 the pKd was 3.53.
With B2 the pKd was 3.78.

What follows are binders tested against T4, APBA2_1, Q99767 (assay: holdup assay). Conditions: plain residues with an end cap or a label only (N-terminal biotin on a linker: ado-ado).
T4 sequence (Q99767 563-664, limits assumed, looked up): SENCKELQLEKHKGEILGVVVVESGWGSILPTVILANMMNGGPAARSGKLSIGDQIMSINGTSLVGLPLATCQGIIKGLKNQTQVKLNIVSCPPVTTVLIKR
Parameters: key: below the threshold = too weak to quantify, mostly under pKd 3.1 to 4
With B1 the pKd was “below the threshold”.
For B2, the pKd was “below the threshold”.

Each binder was assayed against SCRIB_1, Q14160 (assay: holdup assay). Conditions: plain residues with an end cap or a label only (N-terminal biotin on a linker: ado-ado).
Sequence of SCRIB_1, Q14160 (Q14160 718-814): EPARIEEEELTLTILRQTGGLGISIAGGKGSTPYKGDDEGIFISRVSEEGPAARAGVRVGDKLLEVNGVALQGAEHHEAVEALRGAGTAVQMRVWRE
Parameters: key: below the threshold = too weak to quantify, mostly under pKd 3.1 to 4
In the case of B1, the pKd is reported as “below the threshold”.
B2 was tested, and the pKd was 3.7.

Each binder was assayed against NHERF4_2, Q86UT5 (assay: holdup assay). Conditions: plain residues with an end cap or a label only (N-terminal biotin on a linker: ado-ado).
Sequence of NHERF4_2, Q86UT5 (Q86UT5 220-308): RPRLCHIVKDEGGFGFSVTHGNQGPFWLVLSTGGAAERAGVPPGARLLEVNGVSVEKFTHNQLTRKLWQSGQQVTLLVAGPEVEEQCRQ
Parameters: key: below the threshold = too weak to quantify, mostly under pKd 3.1 to 4
For B1, the pKd was “below the threshold”.
With B2 the pKd was “below the threshold”.

These binders were tested against CASK, O14936 (assay: holdup assay). Conditions: plain residues with an end cap or a label only (N-terminal biotin on a linker: ado-ado).
Sequence of CASK, O14936 (O14936 487-570): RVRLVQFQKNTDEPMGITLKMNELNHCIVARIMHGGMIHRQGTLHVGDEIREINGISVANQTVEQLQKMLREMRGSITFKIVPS
Parameters: key: below the threshold = too weak to quantify, mostly under pKd 3.1 to 4
With B1 the pKd was “below the threshold”.
For B2, the pKd was “below the threshold”.

What follows are binders tested against T5, PARD3B_1, Q8TEW8 (assay: holdup assay). Conditions: plain residues with an end cap or a label only (N-terminal biotin on a linker: ado-ado).
T5 sequence (Q8TEW8 196-299, limits assumed, looked up): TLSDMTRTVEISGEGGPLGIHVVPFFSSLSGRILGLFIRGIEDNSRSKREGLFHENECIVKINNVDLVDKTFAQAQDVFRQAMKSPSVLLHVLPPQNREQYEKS
Parameters: key: below the threshold = too weak to quantify, mostly under pKd 3.1 to 4
Binder B1 has a pKd of 4.42.
In the case of B2, the pKd is reported as “below the threshold”.

These binders were tested against DLG2_2, Q15700 (assay: holdup assay). Conditions: plain residues with an end cap or a label only (N-terminal biotin on a linker: ado-ado).
Sequence of DLG2_2, Q15700 (Q15700 189-283): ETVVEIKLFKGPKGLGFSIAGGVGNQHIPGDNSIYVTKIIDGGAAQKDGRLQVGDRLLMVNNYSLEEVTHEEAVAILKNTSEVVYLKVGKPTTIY
Parameters: key: below the threshold = too weak to quantify, mostly under pKd 3.1 to 4
With B1 the pKd was “below the threshold”.
In the case of B2, the pKd is reported as 4.38.

Each binder was assayed against T6, PDZD7_3, Q9H5P4 (assay: holdup assay). Conditions: plain residues with an end cap or a label only (N-terminal biotin on a linker: ado-ado).
T6 sequence (Q9H5P4 857-944, limits assumed, looked up): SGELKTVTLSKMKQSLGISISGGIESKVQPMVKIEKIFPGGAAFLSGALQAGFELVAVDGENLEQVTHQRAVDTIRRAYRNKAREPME
Parameters: key: below the threshold = too weak to quantify, mostly under pKd 3.1 to 4
With B1 the pKd was “below the threshold”.
With B2 the pKd was 4.74.

Each binder was assayed against GRIP2_7, Q9C0E4 (assay: holdup assay). Conditions: plain residues with an end cap or a label only (N-terminal biotin on a linker: ado-ado).
Sequence of GRIP2_7, Q9C0E4 (Q9C0E4 934-1023): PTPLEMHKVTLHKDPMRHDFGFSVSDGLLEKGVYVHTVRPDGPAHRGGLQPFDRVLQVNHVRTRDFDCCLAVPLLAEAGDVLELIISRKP
Parameters: key: below the threshold = too weak to quantify, mostly under pKd 3.1 to 4
With B1 the pKd was “below the threshold”.
In the case of B2, the pKd is reported as “below the threshold”.

What follows are binders tested against MAGI1_2, Q96QZ7 (assay: holdup assay). Conditions: plain residues with an end cap or a label only (N-terminal biotin on a linker: ado-ado).
Sequence of MAGI1_2, Q96QZ7 (Q96QZ7 456-580): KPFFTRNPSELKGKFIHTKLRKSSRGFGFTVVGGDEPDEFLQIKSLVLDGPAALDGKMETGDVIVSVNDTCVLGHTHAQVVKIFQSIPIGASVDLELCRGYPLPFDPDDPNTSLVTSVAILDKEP
Parameters: key: below the threshold = too weak to quantify, mostly under pKd 3.1 to 4
For B1, the pKd was “below the threshold”.
With B2 the pKd was 4.19.

What follows are binders tested against PARD3_3, Q8TEW0 (assay: holdup assay). Conditions: plain residues with an end cap or a label only (N-terminal biotin on a linker: ado-ado).
Sequence of PARD3_3, Q8TEW0 (Q8TEW0 582-685): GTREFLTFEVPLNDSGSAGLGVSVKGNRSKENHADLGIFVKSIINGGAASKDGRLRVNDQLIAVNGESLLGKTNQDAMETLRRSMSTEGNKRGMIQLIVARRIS
Parameters: key: below the threshold = too weak to quantify, mostly under pKd 3.1 to 4
B1 was tested, and the pKd was 4.04.
In the case of B2, the pKd is reported as “below the threshold”.

What follows are binders tested against T7, DFNB31_2, Q9P202 (assay: holdup assay). Conditions: plain residues with an end cap or a label only (N-terminal biotin on a linker: ado-ado).
T7 sequence (Q9P202 274-371, limits assumed, looked up): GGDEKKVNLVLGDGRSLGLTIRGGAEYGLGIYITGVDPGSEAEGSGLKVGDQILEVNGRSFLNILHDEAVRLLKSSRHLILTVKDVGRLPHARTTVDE
Parameters: key: below the threshold = too weak to quantify, mostly under pKd 3.1 to 4
B1 was tested, and the pKd was “below the threshold”.
B2 was tested, and the pKd was “below the threshold”.

These binders were tested against LIMK2, P53671 (assay: holdup assay). Conditions: plain residues with an end cap or a label only (N-terminal biotin on a linker: ado-ado).
Sequence of LIMK2, P53671 (P53671 143-248): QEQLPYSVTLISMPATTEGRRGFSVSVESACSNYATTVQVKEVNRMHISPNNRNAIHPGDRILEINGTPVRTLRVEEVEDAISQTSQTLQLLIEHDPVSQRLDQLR
Parameters: key: below the threshold = too weak to quantify, mostly under pKd 3.1 to 4
B1 was tested, and the pKd was “below the threshold”.
For B2, the pKd was “below the threshold”.

What follows are binders tested against ARHGEF12, Q9NZN5-2 (assay: holdup assay). Conditions: plain residues with an end cap or a label only (N-terminal biotin on a linker: ado-ado).
Sequence of ARHGEF12, Q9NZN5-2 (Q9NZN5 other isoform, or with tags, fused parts or gaps): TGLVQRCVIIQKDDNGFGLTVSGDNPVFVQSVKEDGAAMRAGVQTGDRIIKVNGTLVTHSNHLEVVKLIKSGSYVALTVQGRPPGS
Parameters: key: below the threshold = too weak to quantify, mostly under pKd 3.1 to 4
With B1 the pKd was 3.84.
For B2, the pKd was 4.24.

What follows are binders tested against GORASP1, Q9BQQ3 (assay: holdup assay). Conditions: plain residues with an end cap or a label only (N-terminal biotin on a linker: ado-ado).
Sequence of GORASP1, Q9BQQ3 (Q9BQQ3 1-208): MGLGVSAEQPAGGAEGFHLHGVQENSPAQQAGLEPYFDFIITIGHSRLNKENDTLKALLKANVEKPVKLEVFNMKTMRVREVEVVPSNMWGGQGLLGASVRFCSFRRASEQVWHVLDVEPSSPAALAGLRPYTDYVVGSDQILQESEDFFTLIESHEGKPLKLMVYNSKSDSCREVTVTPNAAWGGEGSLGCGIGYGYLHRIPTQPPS
Parameters: key: below the threshold = too weak to quantify, mostly under pKd 3.1 to 4
Work on B1 yielded a pKd of 4.14.
Work on B2 yielded a pKd of 3.57.

What follows are binders tested against T8, SNTA1, Q13424 (assay: holdup assay). Conditions: plain residues with an end cap or a label only (N-terminal biotin on a linker: ado-ado).
T8 sequence (Q13424 82-180, limits assumed, looked up): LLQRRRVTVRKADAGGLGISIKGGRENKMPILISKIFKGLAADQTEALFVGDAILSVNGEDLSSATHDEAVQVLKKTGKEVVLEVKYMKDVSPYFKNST
Parameters: key: below the threshold = too weak to quantify, mostly under pKd 3.1 to 4
In the case of B1, the pKd is reported as 3.64.
B2 gave a pKd of 4.39.

What follows are binders tested against T9, HTRA3, P83110 (assay: holdup assay). Conditions: plain residues with an end cap or a label only (N-terminal biotin on a linker: ado-ado).
T9 sequence (P83110 354-453, limits assumed, looked up): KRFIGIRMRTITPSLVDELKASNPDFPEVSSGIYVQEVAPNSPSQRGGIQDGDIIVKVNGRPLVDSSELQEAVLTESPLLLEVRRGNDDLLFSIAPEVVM
Parameters: key: below the threshold = too weak to quantify, mostly under pKd 3.1 to 4
B1 showed a pKd of 4.6.
With B2 the pKd was “below the threshold”.

The binders below were run against T10, NHERF3_3, Q5T2W1 (assay: holdup assay). Conditions: plain residues with an end cap or a label only (N-terminal biotin on a linker: ado-ado).
T10 sequence (Q5T2W1 238-333, limits assumed, looked up): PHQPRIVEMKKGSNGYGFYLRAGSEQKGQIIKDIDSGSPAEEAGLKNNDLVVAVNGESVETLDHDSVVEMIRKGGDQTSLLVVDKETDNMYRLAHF
Parameters: key: below the threshold = too weak to quantify, mostly under pKd 3.1 to 4
For B1, the pKd was “below the threshold”.
B2 was tested, and the pKd was “below the threshold”.

The binders below were run against T11, SNTG1, Q9NSN8 (assay: holdup assay). Conditions: plain residues with an end cap or a label only (N-terminal biotin on a linker: ado-ado).
T11 sequence (Q9NSN8 52-150, limits assumed, looked up): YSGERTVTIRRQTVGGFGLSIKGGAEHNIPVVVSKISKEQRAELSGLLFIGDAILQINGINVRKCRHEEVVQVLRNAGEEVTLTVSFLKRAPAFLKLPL
Parameters: key: below the threshold = too weak to quantify, mostly under pKd 3.1 to 4
For B1, the pKd was “below the threshold”.
With B2 the pKd was “below the threshold”.

These binders were tested against T12, TJP3_3, O95049 (assay: holdup assay). Conditions: plain residues with an end cap or a label only (N-terminal biotin on a linker: ado-ado).
T12 sequence (O95049 375-456, limits assumed, looked up): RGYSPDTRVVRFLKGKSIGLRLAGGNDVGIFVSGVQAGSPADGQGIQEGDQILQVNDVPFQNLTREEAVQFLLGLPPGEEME
Parameters: key: below the threshold = too weak to quantify, mostly under pKd 3.1 to 4
Binder B1 has a pKd of 4.31.
With B2 the pKd was “below the threshold”.

Each binder was assayed against TJP2_1, Q9UDY2 (assay: holdup assay). Conditions: plain residues with an end cap or a label only (N-terminal biotin on a linker: ado-ado).
Sequence of TJP2_1, Q9UDY2 (Q9UDY2 24-128): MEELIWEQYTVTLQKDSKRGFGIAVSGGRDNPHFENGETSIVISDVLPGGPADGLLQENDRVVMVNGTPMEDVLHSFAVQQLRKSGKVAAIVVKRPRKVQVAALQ
Parameters: key: below the threshold = too weak to quantify, mostly under pKd 3.1 to 4
B1 was tested, and the pKd was 4.84.
In the case of B2, the pKd is reported as 3.9.

The binders below were run against TJP1_2, Q07157 (assay: holdup assay). Conditions: plain residues with an end cap or a label only (N-terminal biotin on a linker: ado-ado).
Sequence of TJP1_2, Q07157 (Q07157 181-274): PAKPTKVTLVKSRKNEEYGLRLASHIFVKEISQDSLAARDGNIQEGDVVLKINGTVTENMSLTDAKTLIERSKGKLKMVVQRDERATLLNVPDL
Parameters: key: below the threshold = too weak to quantify, mostly under pKd 3.1 to 4
For B1, the pKd was “below the threshold”.
B2 was tested, and the pKd was “below the threshold”.
